Measured values as given in patent publication US20250376519A1 (JIANGSU HENGRUI PHARMACEUTICALS, published 2025).
Blank lines part the entries; values can stand above or below the binder they belong to.

How the values were obtained:
human DLL3 on cells = target: T1, human DLL3 on cells (human, UniProt Q9NYJ7 27-618); experiment: flow cytometry, SHP77 cells
T1 construct: Endogenous on H1184 and SHP77; Cell line is named under assay; also called H1184; DLL3/H82
T1 sequence: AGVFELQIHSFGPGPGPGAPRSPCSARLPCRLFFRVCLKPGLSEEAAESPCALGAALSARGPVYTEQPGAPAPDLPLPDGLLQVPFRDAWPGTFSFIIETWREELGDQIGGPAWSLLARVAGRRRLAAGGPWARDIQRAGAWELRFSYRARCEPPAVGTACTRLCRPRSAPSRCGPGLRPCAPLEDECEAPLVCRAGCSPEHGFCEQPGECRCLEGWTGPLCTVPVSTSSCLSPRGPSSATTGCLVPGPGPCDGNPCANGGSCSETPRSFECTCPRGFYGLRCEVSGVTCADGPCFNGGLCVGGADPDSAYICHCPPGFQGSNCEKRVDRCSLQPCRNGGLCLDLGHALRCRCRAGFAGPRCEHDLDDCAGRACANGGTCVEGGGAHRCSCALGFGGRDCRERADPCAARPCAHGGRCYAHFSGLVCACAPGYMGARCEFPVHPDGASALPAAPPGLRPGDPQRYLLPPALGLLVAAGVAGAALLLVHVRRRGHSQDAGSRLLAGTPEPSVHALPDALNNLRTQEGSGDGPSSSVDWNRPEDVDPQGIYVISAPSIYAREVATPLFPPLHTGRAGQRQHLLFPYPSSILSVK
Description: The plates were centrifuged at 300 g for 5 min, and the supernatant was removed. Different concentrations of test antibodies were added at 100 μL/well. The plates were incubated in the dark in a refrigerator at 4° C. for 1 h. After 3 centrifugal washes at 300 g, working concentrations of APC anti-human IgG Fc (BioLegend, 410712) or PE F(ab′)2-goat anti-human IgG (invitrogen, H10104) were added. The plates were incubated in the dark in a refrigerator at 4° C. for 40 min. After 3 centrifugal washes at 300 g, the geometric mean fluorescence intensity was measured on an Invitrogen flow cytometer, and the EC50 values for the binding of the antibodies to DLL3-expressing cells were calculated.

[1] = target: T2, human DLL3 (ACRO, DLL3-H52H4) (human, UniProt Q9NYJ7 27-492); experiment: SPR Biacore 8K, Ab captured on Protein A
T2 construct: Bought
T2 sequence: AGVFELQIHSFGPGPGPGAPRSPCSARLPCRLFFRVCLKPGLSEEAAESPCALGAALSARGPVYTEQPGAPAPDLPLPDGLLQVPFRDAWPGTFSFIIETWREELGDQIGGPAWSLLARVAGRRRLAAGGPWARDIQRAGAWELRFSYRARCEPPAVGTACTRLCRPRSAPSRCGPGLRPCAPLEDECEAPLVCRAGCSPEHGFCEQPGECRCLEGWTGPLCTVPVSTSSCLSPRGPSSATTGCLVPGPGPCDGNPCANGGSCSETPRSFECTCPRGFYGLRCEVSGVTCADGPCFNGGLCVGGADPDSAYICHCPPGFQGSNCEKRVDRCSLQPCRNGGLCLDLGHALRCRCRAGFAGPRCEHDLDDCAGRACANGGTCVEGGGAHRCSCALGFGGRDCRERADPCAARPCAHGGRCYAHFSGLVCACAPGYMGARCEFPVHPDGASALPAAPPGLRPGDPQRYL
Summary of the method: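 Antibodies captured on a Protein A chip for 18 s; DLL3 or CD3D&3E antigen flowed 180 s, then 600 s dissociation, with real-time detection. Regeneration used 10 mM glycine-HCl pH 1.5 between cycles. Kinetics were obtained by 1:1 model fitting.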

hPDL1 = target: T3, hPDL1 (human, UniProt Q9NZQ7 19-239); experiment: ELISA
T3 construct: bought

hCTLA4 = target: T4, hCTLA4 (human, UniProt P16410 36-162, limits assumed); experiment: ELISA
T4 construct: bought
T4 sequence (P16410 36-162 limits assumed): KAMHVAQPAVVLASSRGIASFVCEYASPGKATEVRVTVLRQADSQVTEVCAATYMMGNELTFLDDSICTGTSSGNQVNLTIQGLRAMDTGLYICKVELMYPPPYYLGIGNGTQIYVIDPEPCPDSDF

T3 sequence (Q9NZQ7 19-239 limits assumed): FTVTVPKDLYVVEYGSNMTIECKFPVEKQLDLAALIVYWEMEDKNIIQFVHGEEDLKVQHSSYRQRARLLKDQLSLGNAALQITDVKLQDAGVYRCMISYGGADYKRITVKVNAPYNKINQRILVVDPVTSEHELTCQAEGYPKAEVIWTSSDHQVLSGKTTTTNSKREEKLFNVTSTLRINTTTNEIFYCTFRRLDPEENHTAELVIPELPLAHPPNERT

B4: PL-8 (bispecific antibody)
chain 1: not shown
chain 2: DIVLTQSPASLAVSPGQRATITCRASESVSIHGTHLMHWYQQKPGQPPKLLIYAASKLESGVPARFSGSGSGTDFTLTINPVEAEDTANYYCQQSFEDPLTFGQGTKLEIKGGGGSGIPPKIECLPIDISIDEGKVLTVASAFTGEPTPEVTWSTGGRKIHSQEQGRFHIENTDDSTTLTIKDVQKQDGGLYTLTLRNEFGSDSATVNIHIRSI
chain 3: not shown
chain 4: not shown
EC50 (hPDL1): 1.4 nM | EC50 (hCTLA4): 14.5 nM

B5: PL-9 (bispecific antibody)
chain 1: not shown
chain 2: DIVLTQSPASLAVSPGQRATITCRASESVSIHGTHLMHWYQQKPGQPPKLLIYAASKLESGVPARFSGSGSGTDFTLTINPVEAEDTANYYCQQSFEDPLTFGQGTKLEIKGGGGSGIPPKIECLPIDISIDEGKCLTVASAFTGEPTPEVTWSTGGRKIHSQEQGRFHIENTDDSTTLTIKDVQKQDGGLYTLTLRNEFGSDSATVNIHIRSI
chain 3: not shown
chain 4: not shown
EC50 (hPDL1): 0.6 nM | EC50 (hCTLA4): 5.5 nM

B6: PL-10 (bispecific antibody)
chain 1: not shown
chain 2: DIVLTQSPASLAVSPGQRATITCRASESVSIHGTHLMHWYQQKPGQPPKLLIYAASKLESGVPARFSGSGSGTDFTLTINPVEAEDTANYYCQQSFEDPLTFGQGTKLEIKGGGGSGIPPKIECLPIDISIDEGKVLTVASCFTGEPTPEVTWSTGGRKIHSQEQGRFHIENTDDSTTLTIKDVQKQDGGLYTLTLRNEFGSDSATVNIHIRSI
chain 3: not shown
chain 4: not shown
EC50 (hPDL1): 0.6 nM | EC50 (hCTLA4): 6.9 nM

B7: PL-11 (bispecific antibody)
chain 1: not shown
chain 2: DIVLTQSPASLAVSPGQRATITCRASESVSIHGTHLMHWYQQKPGQPPKLLIYAASKLESGVPARFSGSGSGTDFTLTINPVEAEDTANYYCQQSFEDPLTFGQGTKLEIKRTVASGIPPKIECLPIDISIDEGKVLTVASAFTGEPTPEVTWSTGGRKIHSQEQGRFHIENTDDSTTLTIKDVQKQDGGLYTLTLRNEFGSDSATVNIHIRSI
chain 3: not shown
chain 4: not shown
EC50 (hPDL1): 0.6 nM | EC50 (hCTLA4): 5.6 nM

B8: PL-12 (bispecific antibody)
chain 1: not shown
chain 2: DIVLTQSPASLAVSPGQRATITCRASESVSIHGTHLMHWYQQKPGQPPKLLIYAASKLESGVPARFSGSGSGTDFTLTINPVEAEDTANYYCQQSFEDPLTFGQGTKLEIKRTVASGIPPKIECLPIDISIDEGKCLTVASAFTGEPTPEVTWSTGGRKIHSQEQGRFHIENTDDSTTLTIKDVQKQDGGLYTLTLRNEFGSDSATVNIHIRSI
chain 3: not shown
chain 4: not shown
EC50 (hPDL1): 0.5 nM | EC50 (hCTLA4): 8 nM

B9: PL-13 (bispecific antibody)
chain 1: not shown
chain 2: DIVLTQSPASLAVSPGQRATITCRASESVSIHGTHLMHWYQQKPGQPPKLLIYAASKLESGVPARFSGSGSGTDFTLTINPVEAEDTANYYCQQSFEDPLTFGQGTKLEIKRTVASGIPPKIECLPIDISIDEGKVLTVASCFTGEPTPEVTWSTGGRKIHSQEQGRFHIENTDDSTTLTIKDVQKQDGGLYTLTLRNEFGSDSATVNIHIRSI
chain 3: not shown
chain 4: not shown
EC50 (hPDL1): 0.5 nM | EC50 (hCTLA4): 4.4 nM

B10: PL-14 (bispecific antibody)
chain 1: not shown
chain 2: DIVLTQSPASLAVSPGQRATITCRASESVSIHGTHLMHWYQQKPGQPPKLLIYAASKLESGVPARFSGSGSGTDFTLTINPVEAEDTANYYCQQSFEDPLTFGQGTKLEIKRTVASGIPPKIECLPIDISIDEGKVLTVASAFTGEPTPEVTWSTGGRKIHSQEQGRFHIENTDDSTTLTIKDVQKQDGGLYTLTLRNEFGSDSATVNIHIRSI
chain 3: not shown
chain 4: not shown
EC50 (hPDL1): 1.3 nM | EC50 (hCTLA4): 6 nM

Now from value to binder:

EC50 (human DLL3 on cells): 5.67 nM | Emax (human DLL3 on cells): 1380 | Kd [1]: 2.57 nM | koff [1]: 0.00109 s⁻¹ | kon [1]: 425000 M⁻¹ s⁻¹
B1: hu30L1H8 (antibody, human IgG1, kappa, V domains shown)
VH: EVRLVQFGAVVKKPGASVKVSCKASGYTFTDYYMNWVRQAPGQSLEWMGIINPYTGDTSYNQKFRGRVTLTVDKSSSTAYMELSSLRSEDTAVYYCARYHYGPHLEGYFDVWGQGTTVTVSS
VL: DIVMTQSPDSLAVSLGERATINCKASENVGYVSWYQQKPGQPPKLLIYGASNRYTGVPDRFSGSGSGTDFTLTISSLQAEDVAVYYCGQSYSYPLTFGQGTKLEIKR

EC50 (human DLL3 on cells): 7.99 nM | Emax (human DLL3 on cells): 1630 | Kd [1]: 2.19 nM | koff [1]: 0.000964 s⁻¹ | kon [1]: 440000 M⁻¹ s⁻¹
B2: hu30L1H10 (antibody, human IgG1, kappa, V domains shown)
VH: EVRLVQSGAEVKKPGASVKVSCKASGYTFTDYYMNWVRQSHGQSLEWMGIINPYTGDTSYNQKFRGRVTLTVDKSASTAYMELSSLRSEDTAVYYCARYHYGPHLEGYFDVWGQGTTVTVSS
VL: DIVMTQSPDSLAVSLGERATINCKASENVGYVSWYQQKPGQPPKLLIYGASNRYTGVPDRFSGSGSGTDFTLTISSLQAEDVAVYYCGQSYSYPLTFGQGTKLEIKR

EC50 (human DLL3 on cells): 5.44 nM | Emax (human DLL3 on cells): 1460 | Kd [1]: 2.09 nM | koff [1]: 0.00092 s⁻¹ | kon [1]: 440000 M⁻¹ s⁻¹
B3: hu30L4H5 (antibody, human IgG1, kappa, V domains shown)
VH: EVRLVQSGAEVKKPGASVKVSCKASGYTFTDYYMNWVRQAPGQSLEWMGIINPYTGDTSYNQKFRGRVTLTVDKSASTAYMELSSLRSEDTAVYYCARYHYGPHLEGYFDVWGQGTTVTVSS
VL: DIQMTQSPSSLSASVGDRVTITCKASENVGYVSWYQQKPGKAPKLLIYGASNRYTGVPSRFSGSGSGTDFTLTISSLQPEDFATYYCGQSYSYPLTFGQGTKLEIKR

EC50 (hPDL1): 1.4 nM | EC50 (hCTLA4): 3.2 nM
B11: PL-15 (bispecific antibody)
chain 1: not shown
chain 2: DIVLTQSPASLAVSPGQRATITCRASESVSIHGTHLMHWYQQKPGQPPKLLIYAASKLESGVPARFSGSGSGTDFTLTINPVEAEDTANYYCQQSFEDPLTFGQGTKLEIKRTVASGIPPKIECLPIDISIDEGKCLTVASAFTGEPTPEVTWSTGGRKIHSQEQGRFHIENTDDSTTLTIKDVQKQDGGLYTLTLRNEFGSDSATVNIHIRSI
chain 3: not shown
chain 4: not shown

EC50 (hPDL1): 1.7 nM | EC50 (hCTLA4): 34.9 nM
B12: PL-16 (bispecific antibody)
chain 1: not shown
chain 2: DIVLTQSPASLAVSPGQRATITCRASESVSIHGTHLMHWYQQKPGQPPKLLIYAASKLESGVPARFSGSGSGTDFTLTINPVEAEDTANYYCQQSFEDPLTFGQGTKLEIKRTVASGIPPKIECLPIDISIDEGKVLTVASCFTGEPTPEVTWSTGGRKIHSQEQGRFHIENTDDSTTLTIKDVQKQDGGLYTLTLRNEFGSDSATVNIHIRSI
chain 3: not shown
chain 4: not shown

EC50 (hPDL1): 1.4 nM | EC50 (hCTLA4): 6.2 nM
B13: PL-17 (bispecific antibody)
chain 1: not shown
chain 2: DIVLTQSPASLAVSPGQRATITCRASESVSIHGTHLMHWYQQKPGQPPKLLIYAASKLESGVPARFSGSGSGTDFTLTINPVEAEDTANYYCQQSFEDPLTFGQGTKLEIKRTVASGIPPKIECLPIDISIDEGKVLTVASAFTGEPTPEVTWSTGGRKIHSQEQGRFHIENTDDSTTLTIKDVQKQDGGLYTLTLRNEFGSDSATVNIHIRSI
chain 3: not shown
chain 4: not shown

EC50 (hPDL1): 1.6 nM | EC50 (hCTLA4): 6.7 nM
B14: PL-18 (bispecific antibody)
chain 1: not shown
chain 2: DIVLTQSPASLAVSPGQRATITCRASESVSIHGTHLMHWYQQKPGQPPKLLIYAASKLESGVPARFSGSGSGTDFTLTINPVEAEDTANYYCQQSFEDPLTFGQGTKLEIKRTVASGIPPKIECLPIDISIDEGKCLTVASAFTGEPTPEVTWSTGGRKIHSQEQGRFHIENTDDSTTLTIKDVQKQDGGLYTLTLRNEFGSDSATVNIHIRSI
chain 3: not shown
chain 4: not shown

EC50 (hPDL1): 1.6 nM | EC50 (hCTLA4): 6.5 nM
B15: PL-19 (bispecific antibody)
chain 1: not shown
chain 2: DIVLTQSPASLAVSPGQRATITCRASESVSIHGTHLMHWYQQKPGQPPKLLIYAASKLESGVPARFSGSGSGTDFTLTINPVEAEDTANYYCQQSFEDPLTFGQGTKLEIKRTVASGIPPKIECLPIDISIDEGKVLTVASCFTGEPTPEVTWSTGGRKIHSQEQGRFHIENTDDSTTLTIKDVQKQDGGLYTLTLRNEFGSDSATVNIHIRSI
chain 3: not shown
chain 4: not shown
